B1: Recombinant protein (SEQ ID NO: 1), modified from sculptin of the tick Amblyomma cajennense (other)
chain: GKPQGHPHDALEARSDAVHTAVPKMPKGGHGGFEPIPIDYDERALEARSDAVHTAVPKMPKGGLGGFEPIPIDYDERALEARSDAVHTAVPKMPKGGHGGFEPIPIDYDERALEARSDAVHTAVPKMPKGGHGGFEPIPIDYDERALHALEHHHHHH
notes: Expressed in E. coli BL21(DE3) from pET28a, without signal peptide and with a C-terminal polyhistidine tail; Mass 16990.90 Da by MALDI-TOF; also called Scpt; preserved recombinant protein
B2: Recombinant protein fragment of HPLC peak H1 generated by factor Xa (SEQ ID NO: 10) (peptide)
peptide: GKPQGHPHDALEARSDAVHTAVPKMPKGGHGGFEPIPIDYDERALEAR

Assays:
[1] = target: T1, thrombin (Homo sapiens (Human), UniProt P00734 315-363; P00734 364-622); experiment: enzyme kinetics, S-2238 hydrolysis by thrombin 0.1 nM; apparent Km from Lineweaver-Burk plots against inhibitor concentration; competing inhibition
[2] = target: T1, thrombin; experiment: enzyme kinetics, S-2238 hydrolysis by thrombin; nonlinear regression for competing enzyme inhibition
[3] = target: T1, thrombin; experiment: enzyme kinetics, S-2238 hydrolysis by thrombin; Morrison tight binding equation
[4] = target: T1, thrombin; experiment: progress curves of S-2238 hydrolysis by thrombin; kobs plotted against recombinant protein concentration
[5] = target: T1, thrombin; experiment: cell-based or functional assay
[6] = target: T1, thrombin; experiment: calculated from kon and koff (equation 7)

Row | Binder | Ki [1] [nM] | Ki [2] [nM] | Ki [3] [nM] | koff [4] [s⁻¹] | kon [4] [M⁻¹ s⁻¹] | IC50 of thrombin inhibition (hydrolysis of S-2238 by thrombin 0.1 nM) [5] [nM] | Ki [6] [nM] | thrombin inhibition activity retained, relative to non-hydrolyzed recombinant protein (S-2238 hydrolysis, thrombin 0.1 nM, fragment 100 pM) [5]
1 | B1 | 0.0185 | 0.0181 | 0.0195 | 0.00065 | 4.04e+07 | 0.0866 | 0.0161 | –
2 | B2 | – | – | – | – | – | – | – | ~50 % of preserved recombinant protein
